Measured values as given in the Human Domainome abundance scans (Beltran et al. 2025).

B1: Nuclear receptor subfamily 4 group A member 2, residues 260 to 336; numbered along this chain, P43354 (parent)
chain: EGLCAVCGDNAACQHYGVRTCEGCKGFFKRTVQKNAKYVCLANKNCPVDKRRRNRCQYCRFQKCLAVGMVKEVVRTD

Variants of: B1
Test: abundance fitness (aPCA) (normalised: wild type 0, dead -1); higher = more abundant; growth selection in yeast, the domain comes from the species named
Conditions: Homo sapiens

Abundance fitness of substitutions, site by site:
Q14: P -0.012 | R -0.061 | S 0.117 | T -0.013 | V 0.095 | W 0.017 | Y 0.572
H15: A -0.138 | C -0.097 | E -0.106 | G -0.082 | K -0.101 | L -0.014 | M 0.054 | N -0.012 | P 0.104 | Q -0.318 | R -0.137 | S -0.053 | T 0.01 | V 0.016 | W 0.013
Y16: A 0.049 | F 0.037 | G -0.01 | I -0.432 | K -0.185 | L -0.081 | M 0.383 | N 0.029 | P -0.112 | Q 0.025 | R -0.051 | S -0.1 | T -0.131 | V -0.185 | W -0.351
G17: C 0.255 | E -0.116 | H -0.004 | I 0.092 | K -0.346 | L -0.133 | M -0.076 | P -0.841 | Q 0.044 | R -0.173 | S -0.371 | T -0.097 | V -0.364 | W -0.383
V18: A 0.116 | C -0.263 | E -0.044 | F -0.111 | G -0.112 | H -0.387 | L -0.15 | P -0.11 | Q -0.161 | R -0.29 | S -0.121 | W -0.484
R19: A 0.015 | C 0.009 | D -0.202 | E 0.064 | F 0.14 | H 0.137 | I -0.03 | K 0.05 | L 0.026 | M -0.175 | N 0.182 | P 0.037 | Q -0.053 | S 0.034 | V 0.005 | W -0.053 | Y -0.12
T20: S 0.204
C21: A -0.632 | G -0.46 | L -0.725 | Q 0.041 | R -0.981
E22: D 0.049 | F -0.102 | G -0.142 | H -0.02 | I -0.393 | K -0.067 | L -0.067 | M 0.027 | N 0.248 | P -0.001 | Q 0.089 | S -0.204 | V -0.213 | W -0.208 | Y 0.06
G23: A -0.136 | C 0.065 | E -0.016 | I 0.017 | K 0.106 | Q -0.208 | S 0.306 | W -0.029
C24: R -0.954 | V -0.802
K25: A 0.127 | D -0.017 | E 0.049 | F -0.047 | G 0.101 | L 0.057 | M 0.082 | N 0.033 | P -0.675 | Q -0.019 | R 0.079 | S -0.031 | T -0.12 | V 0.046 | W -0.013 | Y -0.503
G26: A -0.079 | C -0.138 | D -0.062 | E -0.214 | F 0.068 | H 0.16 | K -0.352 | L -0.137 | M -0.27 | Q -0.171 | R -0.174 | S -0.218 | T 0.051 | V -0.191 | W -0.388
F27: A -1.06 | E -0.959 | G -0.99 | H -0.624 | I -0.705 | K -0.691 | L -0.431 | M -0.584 | R -0.975 | S -1.12 | T -1.04 | V -0.934 | W -0.126 | Y -0.846
F28: A -0.1 | C -0.483 | D -0.747 | E -1.29 | H -0.114 | I -0.262 | K -0.981 | L -0.15 | M -0.176 | N -0.707 | P -1.06
